For 25 sequences, self-aminoacylation results are on record in the supplement of paper PMC9233669.

This sample holds only a part of the variants without activity.

Data set [1] relates to biotinyl-Met-oxazolone. The data set can be described thus: self-aminoacylation, catalytic enhancement (BMO) (fold over background); higher = more active; k-Seq, kA / k0A0; sequences stand for … in GGGAAUGGAUCCACAUCUACGAAUUC…UUCACUGCAGACUUGACGAAGCUG
Put shortly: (§1)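 Each biotinyl-aminoacyl-oxazolone, at 2–1250 μM, was incubated with mutagenized RNA pools (0.43 μM) carrying a 21-nt variable region. The 50 μL reactions contained HEPES/NaCl/KCl/MgCl2/CaCl2 buffer with 5% acetonitrile at pH 6.9–7.0 and ran for 90 minutes at room temperature. After streptavidin capture, RNA was measured by qPCR in triplicate and by Illumina sequencing, and catalytic enhancement was calculated as median kA over the uncatalyzed rate from a pseudo-first-order fit of per-sequence fraction reacted.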

In data set [2] the test system is biotinyl-Trp-oxazolone. The data set can be described thus: self-aminoacylation, catalytic enhancement (BWO) (fold over background); higher = more active; k-Seq, kA / k0A0; sequences stand for … in GGGAAUGGAUCCACAUCUACGAAUUC…UUCACUGCAGACUUGACGAAGCUG
Put shortly:
as §1

Data set [3] has as its system biotinyl-Ile-oxazolone. The data set can be described thus: self-aminoacylation, catalytic enhancement (BIO) (fold over background); higher = more active; k-Seq, kA / k0A0; sequences stand for … in GGGAAUGGAUCCACAUCUACGAAUUC…UUCACUGCAGACUUGACGAAGCUG
Put shortly:
as §1

The subject of data set [4] is biotinyl-Leu-oxazolone. The data set can be described thus: self-aminoacylation, catalytic enhancement (BLO) (fold over background); higher = more active; k-Seq, kA / k0A0; sequences stand for … in GGGAAUGGAUCCACAUCUACGAAUUC…UUCACUGCAGACUUGACGAAGCUG
Put shortly:
as §1

The test system of data set [5] is biotinyl-Val-oxazolone. The data set can be described thus: self-aminoacylation, catalytic enhancement (BVO) (fold over background); higher = more active; k-Seq, kA / k0A0; sequences stand for … in GGGAAUGGAUCCACAUCUACGAAUUC…UUCACUGCAGACUUGACGAAGCUG
Put shortly:
as §1

Data set [6] relates to biotinyl-Phe-oxazolone. The data set can be described thus: self-aminoacylation, catalytic enhancement (BFO) (fold over background); higher = more active; k-Seq, kA / k0A0; sequences stand for … in GGGAAUGGAUCCACAUCUACGAAUUC…UUCACUGCAGACUUGACGAAGCUG
Summed up: as §1

For “AUUACCCUGGUCAUAGAGUUA [Fam2.1 aminoacylation ribozyme variant]”, the self-aminoacylation in data set [1] was determined as 1.39; in data set [2], 0.786; in data set [3] it was 1.25; in data set [4], 0.921; in data set [5], 1.1; in data set [6], 0.667.

In the case of “AUUCACCAAGGUGAUCGGGUG [Fam2.2 aminoacylation ribozyme variant]”, the self-aminoacylation in data set [1] amounted to 3.28; in data set [2] it was 4.15; in data set [3], 2.63; in data set [4] it was 4.13; in data set [5] it was 2.98; in data set [6] it was 17.6.

As to “CCACUUCGAACAAUCGGUCUG [Fam1A.1 aminoacylation ribozyme variant]”, the self-aminoacylation in data set [1] came out at 1.77; in data set [2], 1.32; in data set [3] it was 1.15; in data set [4] it was 1.41; in data set [5], 1.24; in data set [6], 1.26.

For “AAGUUUGCUACUAGUCGCAAG [Fam3.1 aminoacylation ribozyme variant]”, the self-aminoacylation came to 0.802 in data set [1]; 0.775 in data set [2]; 0.824 in data set [3]; 0.766 in data set [4]; 0.838 in data set [5]; 1.13 in data set [6].

For “CUACUUCAAAAAAGCGGUCUG [Fam1A.1 aminoacylation ribozyme variant]”, the self-aminoacylation came out at 1.02 in data set [1]; 0.633 in data set [2]; 0.999 in data set [3]; 0.966 in data set [4]; 0.801 in data set [5]; 0.451 in data set [6].

As for “AUUCACCUAGGUCCUCGGGGG [Fam2.2 aminoacylation ribozyme variant]”, the self-aminoacylation in data set [1] is 2.98; in data set [2] it was 2.42; in data set [3], 2.8; in data set [4], 2.98; in data set [5] it was 2.85; in data set [6], 9.54.

On to “AUUCACCGAGGGCAUCGGGUG [Fam2.2 aminoacylation ribozyme variant]”, for which the self-aminoacylation in data set [1] amounted to 5.18; in data set [2] it was 7.83; in data set [3] it was 4.62; in data set [4], 8.06; in data set [5] it was 5.15; in data set [6], 30.9.

For “ACUCACCUAGGUGAUCGGGUG [Fam2.2 aminoacylation ribozyme variant]”, the self-aminoacylation in data set [1] was found to be 5.21; in data set [2], 8.44; in data set [3], 5.05; in data set [4], 6.01; in data set [5], 4.87; in data set [6] it was 39.2.

Turning to “CCACACUUCAAGCUAUAGGUC [Fam1B.1 aminoacylation ribozyme variant]”, the self-aminoacylation in data set [1] came out at 0.513; in data set [2], 0.508; in data set [3], 0.613; in data set [4], 0.489; in data set [5], 0.806; in data set [6], 0.975.

For the sequence “CCACACUUCACGCAAUUGGUC [Fam1B.1 aminoacylation ribozyme variant]”, the self-aminoacylation in data set [1] is 0.667; in data set [2], 0.792; in data set [3], 0.951; in data set [4], 0.957; in data set [5] it was 1.03; in data set [6] it was 0.859.

Take “AUUACCCUGGUCAUCAUGUGA [Fam2.1 aminoacylation ribozyme variant]”: the self-aminoacylation in data set [1] is 6.44; in data set [2], 6.97; in data set [3] it was 2.67; in data set [4], 6.36; in data set [5], 3.17; in data set [6] it was 26.2.

On to “AGGUUUGCUAAUAGCCGCAAG [Fam3.1 aminoacylation ribozyme variant]”, for which the self-aminoacylation was found to be 1.15 in data set [1]; 2.25 in data set [2]; 1.2 in data set [3]; 1.11 in data set [4]; 0.935 in data set [5]; 4.78 in data set [6].

“AUACACCUAGAUCAUCGGGUG [Fam2.2 aminoacylation ribozyme variant]”: the self-aminoacylation in data set [1] is 3; in data set [2] it was 3.43; in data set [3], 1.85; in data set [4], 2.73; in data set [5], 1.69; in data set [6], 7.92.

For the sequence “AUUACCCUGGUCAUGGGGUGA [Fam2.1 aminoacylation ribozyme variant]”, the self-aminoacylation in data set [1] was 8.63; in data set [2], 9.45; in data set [3] it was 4.02; in data set [4], 10.1; in data set [5] it was 4.17; in data set [6], 66.9.

Turning to “CUACUUCAAACAAUCGUUCUA [Fam1A.1 aminoacylation ribozyme variant]”, the self-aminoacylation stood at 0.545 in data set [1]; 0.631 in data set [2]; 0.582 in data set [3]; 0.559 in data set [4]; 0.801 in data set [5]; 1.08 in data set [6].

As to “AUUCACCAAGGUCAUCGGGUG [Fam2.2 aminoacylation ribozyme variant]”, the self-aminoacylation in data set [1] was 9.68; in data set [2] it was 8.61; in data set [3] it was 5.52; in data set [4] it was 12.3; in data set [5] it was 5.71; in data set [6], 75.8.

Regarding “CCACACUUCAAUCCAUCGGUC [Fam1B.1 aminoacylation ribozyme variant]”, the self-aminoacylation in data set [1] is 0.824; in data set [2], 0.553; in data set [3] it was 0.801; in data set [4], 0.676; in data set [5] it was 0.91; in data set [6] it was 0.794.

Regarding “AUUACCCUGGUUAUCGAGUUA [Fam2.1 aminoacylation ribozyme variant]”, the self-aminoacylation turned out to be 1.15 in data set [1]; 0.319 in data set [2]; 0.945 in data set [3]; 1.01 in data set [4]; 0.885 in data set [5]; 0.868 in data set [6].

Regarding “AUUCACCUGGGCCAUCGGGUG [Fam2.2 aminoacylation ribozyme variant]”, the self-aminoacylation in data set [1] amounted to 6.2; in data set [2] it was 4.74; in data set [3], 4.03; in data set [4], 6.53; in data set [5], 5.03; in data set [6], 35.7.

Consider “AAGUUUGCUAAUAGUCGCUAU [Fam3.1 aminoacylation ribozyme variant]”, for which the self-aminoacylation amounted to 1.26 in data set [1]; 1.08 in data set [2]; 1.31 in data set [3]; 1.06 in data set [4]; 0.984 in data set [5]; 1.39 in data set [6].

“AUUACCCGGGUCCUCGAGUGA [Fam2.1 aminoacylation ribozyme variant]”: the self-aminoacylation in data set [1] is 5.42; in data set [2], 7.11; in data set [3], 3.5; in data set [4], 7.78; in data set [5], 3.84; in data set [6], 47.4.

Regarding “AUUCAAAUAGGUCAUCGGGUG [Fam2.2 aminoacylation ribozyme variant]”, the self-aminoacylation in data set [1] came out at 5.54; in data set [2] it was 5.77; in data set [3] it was 3.9; in data set [4], 7.01; in data set [5], 3.38; in data set [6], 40.1.

As to “AAGGUUGCUAAUAGUCGGAAG [Fam3.1 aminoacylation ribozyme variant]”, the self-aminoacylation in data set [1] is 1.08; in data set [2] it was 3.38; in data set [3], 1.51; in data set [4], 1.23; in data set [5] it was 0.973; in data set [6], 4.52.

“AUUGACCUAGGUCAUCGUGUG [Fam2.2 aminoacylation ribozyme variant]”: the self-aminoacylation is 1.04 in data set [1]; 1.35 in data set [2]; 1.36 in data set [3]; 1.36 in data set [4]; 1.18 in data set [5]; 4.26 in data set [6].

Consider “AUACUUCAAUCAAUCGGUCUG [Fam1A.1 aminoacylation ribozyme variant]”, for which the self-aminoacylation in data set [1] was determined as 1.19; in data set [2] it was 6.62; in data set [3], 1.11; in data set [4], 1.33; in data set [5], 1.06; in data set [6], 8.53.
